What was measured:
[1] = molecular target: T1, standard peptide KPGVISVMGT (last 10 amino acids of the type VI collagen α3 chain, 3168-3177); assay: competitive ELISA, peptide specificity test
T1 construct: also called STD peptide; immunogenic peptide
T1 peptide: KPGVISVMGT

[2] = molecular target: T2, elongated peptide KPGVISVMGTA; assay: competitive ELISA, serial 2-fold dilutions of peptide
T2 peptide: KPGVISVMGTA

[3] = molecular target: T3, truncated peptide KPGVISVMG; assay: as above
T3 peptide: KPGVISVMG

- binding result [1]: binds
- binding result [2]: no binding
- binding result [3]: no binding
B1: monoclonal antibody 10A3 (antibody, mouse IgG1, kappa, V domains shown)
VH: EVQLQQSGPVMVKPGTSVKTSCKASGYTFTDFNMNWVKQSHGKSLEWIGAINPHNGATSYNQKFSGKATLTVDKSSSTAYMELNSLTSDDSAVYYCARWGNGKNSWGQGTTLTVSS
VL: DVVMTQTPLSLPVNLGDQASISCRSSQRIVHSNGITFLEWYLQKPGQSPKLLIYRVSNRFSGVPDRFSGSGSGTDFTLKISRVEAEDLGLYYCFQGSHVPLTFGAGTRLELKR
notes: Mouse IgG1/kappa from hybridoma; also called the chosen antibody; HRP conjugated monoclonal antibody 10A3

From patent US20190309055A1 (NORDIC BIOSCIENCE A S, published 2019)
